Data from US20060216705A1 (SUMITOMO CHEMICAL, published 2006).

B2: chimera protein of the DNA-binding region of GAL4 and the bHLH-PAS region part of the present transcription regulatory factor (mNXF) (other)
chain: MKLLSSIEQACDICRLKKLKCSKEKPKCAKCLKNNWECRYSPKTKRSPLTRAHLTEVESRLERLEQLFLLIFPREDLDMILKMDSLQDIKALLTGLFVQDNVNKDAVTDRLASVETDMPLTLRQHRISATSSSEESSNKGQRQLTVSMYRSTKGASKARRDQINAEIRNLKELLPLAEADKVRLSYLHIMSLACIYTRKGVFFAGGTPLAGPTGLLSAQELEDIVAALPGFLLVFTAEGKLLYLSESVSEHLGHSMVDLVAQGDSIYDIIDPADHLTVRQQLTMPSALDADRLFRCRFNTSKSLRRQSSGNKLVLIRGRFHAHPPGAYWAGNPVFTAFCAPLEPRPRPGPGPGPGPGPASLFLAMFQSRHAKDLALLDVSESVLIYLGFERSELLCKSWYGLLHPEDLAQASSQHYRLLAESGDIQAEMVVRLQAKHGGWTWIYCMLYSEGPEGPFTANNYPISDT
notes: Expressed in HeLa cells for the two-hybrid assay; also called Gal4-mNXF; Gal4-NXF

Experiments:
[1] = biological target: B2; experiment: mammalian two-hybrid assay in HeLa cells (Gal4-NXF + VP16-NXF, luciferase reporter)
[2] = biological target: T1, chimera protein of the VP16 transcription activating region and the bHLH-PAS region part of Sim2 (human, UniProt Q14190 1-500); experiment: mammalian two-hybrid assay in HeLa cells (Gal4-NXF + VP16-X, luciferase reporter)
T1 construct: domain: bHLH-PAS region part; also called VP16-Sim2; pVP16-Sim2 (bHLH-PAS) product
T1 sequence: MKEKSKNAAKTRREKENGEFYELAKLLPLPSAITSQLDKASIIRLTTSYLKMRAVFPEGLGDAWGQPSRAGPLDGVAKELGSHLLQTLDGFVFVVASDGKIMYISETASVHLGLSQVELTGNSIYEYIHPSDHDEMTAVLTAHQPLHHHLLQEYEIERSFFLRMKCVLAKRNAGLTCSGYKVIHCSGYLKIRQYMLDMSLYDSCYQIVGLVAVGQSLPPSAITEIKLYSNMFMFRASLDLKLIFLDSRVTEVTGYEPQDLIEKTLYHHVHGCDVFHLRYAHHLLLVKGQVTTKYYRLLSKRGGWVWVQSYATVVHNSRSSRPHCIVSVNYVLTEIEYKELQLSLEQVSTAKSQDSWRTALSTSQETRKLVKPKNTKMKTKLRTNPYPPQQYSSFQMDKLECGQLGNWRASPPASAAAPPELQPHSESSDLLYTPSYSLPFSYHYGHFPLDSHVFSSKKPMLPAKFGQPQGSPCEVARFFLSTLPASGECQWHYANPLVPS

[3] = biological target: T2, chimera protein of the VP16 transcription activating region and the bHLH-PAS region part of Clock (human, UniProt O15516 1-530); experiment: as above
T2 construct: domain: bHLH-PAS region part; also called VP16-Clock; pVP16-Clock (bHLH-PAS) product
T2 sequence: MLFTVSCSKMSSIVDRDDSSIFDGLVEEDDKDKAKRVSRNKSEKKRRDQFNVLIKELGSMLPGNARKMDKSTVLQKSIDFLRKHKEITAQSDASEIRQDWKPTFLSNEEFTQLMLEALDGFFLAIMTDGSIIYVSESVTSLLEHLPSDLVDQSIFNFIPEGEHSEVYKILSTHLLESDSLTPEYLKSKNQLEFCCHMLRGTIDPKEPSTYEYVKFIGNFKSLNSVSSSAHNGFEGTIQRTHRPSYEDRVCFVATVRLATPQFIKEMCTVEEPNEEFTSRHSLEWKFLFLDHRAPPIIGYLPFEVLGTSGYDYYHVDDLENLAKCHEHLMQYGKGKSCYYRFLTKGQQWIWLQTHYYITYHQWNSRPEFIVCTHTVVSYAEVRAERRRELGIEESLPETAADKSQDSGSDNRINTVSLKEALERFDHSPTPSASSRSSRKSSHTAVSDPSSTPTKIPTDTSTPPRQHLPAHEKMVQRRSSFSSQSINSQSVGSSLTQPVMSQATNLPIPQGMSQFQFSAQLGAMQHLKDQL

B1: chimera protein of the VP16 transcription activating region and the bHLH-PAS region part of the present transcription activating factor (mNXF) (other)
chain: MYRSTKGASKARRDQINAEIRNLKELLPLAEADKVRLSYLHIMSLACIYTRKGVFFAGGTPLAGPTGLLSAQELEDIVAALPGFLLVFTAEGKLLYLSESVSEHLGHSMVDLVAQGDSIYDIIDPADHLTVRQQLTMPSALDADRLFRCRFNTSKSLRRQSSGNKLVLIRGRFHAHPPGAYWAGNPVFTAFCAPLEPRPRPGPGPGPGPGPASLFLAMFQSRHAKDLALLDVSESVLIYLGFERSELLCKSWYGLLHPEDLAQASSQHYRLLAESGDIQAEMVVRLQAKHGGWTWIYCMLYSEGPEGPFTANNYPISDT
notes: also called VP16-NXF; pVP16-NXF (bHLH-PAS) product
binding result [1]: no binding

B2
binding result [2]: no binding | binding result [3]: no binding
